For 19 molecules, Kd results are on record in patent publication US20190367592A1 (AC IMMUNE, published 2019).

A word on the Kd: it is the constant that tells how readily two partners part at equilibrium.

The assay has as its target T1, recombinant human Tau monomer, 2N4R isoform (amino acids 2-441) (human, UniProt P10636-8 2-441).
T1 construct: range 2-441; N-terminal His-tag removed with TEV protease; also called monomeric Tau
Briefly: SPR screen, hIgG captured, Tau monomer analyte. An excerpt:
Antibody 125B11-H3 was humanized onto VH3 and Vκ1 consensus frameworks. The heavy chain graft included murine residues at position 78 (Kabat numbering system). The Vκ1 graft included murine residues in framework positions 43 and 87. The light chain of 113F5-F7 was also humanized onto the Vκ1 framework, with additional murine residues at framework positions 43 and 87. Humanized variant heavy chains (125B11) and light chains (125B11 and 113F5-F7) were co-transfected in multiple combinations and purified in 96-well format as described above. Humanized variants were then screened for affinity for human Tau monomer using the Biacore human IgG capture kit, a Series S CM5 chip and a Biacore T200 instrument. Antibodies were diluted to 2 μg/ml and captured for 15 seconds at 10 μl/min. Association and dissociation of 0, 100 and 500 nM human Tau monomer in HBSP was monitored for 180s and 300s respectively at a flow rate of 40 μl/min. A 1:1 binding model was applied to the results (Table 9).
Variants hu125B11.v17 (HC3+LC1), hu125B11.v26 (HC4+LC2) and hu125B 11.v28 (HC4+LC4) were selected for high-resolution kinetic analysis based on the affinity screen (Table 10). Antibody 94B2-C1 was humanized onto VH1 and Vx2 frameworks. The heavy chain graft also included murine residues at position 28, 29, 67, 69, 71, and 73 (Kabat numbering system). The Vκ2 graft also included murine residues in framework positions 2, 36, and 46. […] Variant hu94B2.v105 (heavy chain variant 94B2.HCl, light chain variant 94B2.LC13) was selected for detailed SPR characterization (Table 11).

T1 sequence (P10636 other isoform, or with tags, fused parts or gaps limits assumed): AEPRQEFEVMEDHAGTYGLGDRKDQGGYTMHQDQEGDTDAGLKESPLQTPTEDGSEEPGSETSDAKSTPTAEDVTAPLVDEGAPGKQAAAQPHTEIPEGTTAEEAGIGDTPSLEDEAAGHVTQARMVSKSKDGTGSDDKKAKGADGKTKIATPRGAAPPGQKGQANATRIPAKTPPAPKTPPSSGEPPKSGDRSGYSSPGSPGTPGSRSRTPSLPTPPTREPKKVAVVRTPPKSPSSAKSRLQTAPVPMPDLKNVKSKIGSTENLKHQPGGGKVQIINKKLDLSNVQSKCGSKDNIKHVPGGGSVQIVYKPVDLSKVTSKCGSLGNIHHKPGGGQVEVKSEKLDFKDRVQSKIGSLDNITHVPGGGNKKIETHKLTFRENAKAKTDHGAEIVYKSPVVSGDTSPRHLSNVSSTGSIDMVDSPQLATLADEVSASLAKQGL

B1: hu94B2 HC1 + LC11 (antibody, V domains shown)
VH: EVQLVQSGAEVKKPGASVKVSCKASGYSLTGYTMNWVRQAPGQGLEWIGLISPYNGVTSYNQKFKGRATLTVDKSTSTAYLELSSLRSEDTAVYYCARQGAYWGQGTLVTVSS
VL: DVVMTQTPLSLPVTPGQPASISCKSSQSLLDSDGKTYLNWYLQKPGQSPQRLIYLVSKLDSGVPDRFSGSGSGTDFTLKISRVEAEDVGVYYCWQGTHFPWTFGQGTKVEIK
For the molecule B1, the Kd was found to be 91.5 nM.

B2: hu94B2 HC3 + LC15 (antibody, V domains shown)
VH: EVQLVQSGAEVKKPGASVKVSCKASGYSLTGYTMNWVRQAPGQGLEWIGLISPYNGVTSYNQKFKGRATITVDKSTSTAYLELSSLRSEDTAVYYCARQGAYWGQGTLVTVSS
VL: DIVMTQTPLSLPVTPGQPASISCKSSQSLLDSDGKTYLNWYLQKPGQSPQRLIYLVSKLDSGVPDRFSGSGSGTDFTLKISRVEAEDVGVYYCWQGTHFPWTFGQGTKVEIK
For the molecule B2, the Kd was 64.1 nM.

B3: hu94B2 HC4 + LC9 (antibody, V domains shown)
VH: EVQLVQSGAEVKKPGASVKVSCKASGYSLTGYTMNWVRQAPGQGLEWIGLISPYNGVTSYNQKFKGRATLTRDKSTSTAYLELSSLRSEDTAVYYCARQGAYWGQGTLVTVSS
VL: DVVMTQTPLSLPVTPGQPASISCKSSQSLLDSDGKTYLNWLLQKPGQSPQRLIYLVSKLDSGVPDRFSGSGSGTDFTLKISRVEAEDVGVYYCWQGTHFPWTFGQGTKVEIK
As to B3, the dissociation constant (Kd) worked out at 61.9 nM.

B4: hu94B2 HC3 + LC13 (antibody, V domains shown)
VH: EVQLVQSGAEVKKPGASVKVSCKASGYSLTGYTMNWVRQAPGQGLEWIGLISPYNGVTSYNQKFKGRATITVDKSTSTAYLELSSLRSEDTAVYYCARQGAYWGQGTLVTVSS
VL: DIVMTQTPLSLPVTPGQPASISCKSSQSLLDSDGKTYLNWLLQKPGQSPQRLIYLVSKLDSGVPDRFSGSGSGTDFTLKISRVEAEDVGVYYCWQGTHFPWTFGQGTKVEIK
For the molecule B4, the Kd was determined as 3.8 nM.

B5: hu94B2 HC6 + LC13 (antibody, V domains shown)
VH: EVQLVQSGAEVKKPGASVKVSCKASGYSLTGYTMNWVRQAPGQGLEWIGLISPYNGVTSYNQKFKGRVTITVDKSTSTAYLELSSLRSEDTAVYYCARQGAYWGQGTLVTVSS
VL: DIVMTQTPLSLPVTPGQPASISCKSSQSLLDSDGKTYLNWLLQKPGQSPQRLIYLVSKLDSGVPDRFSGSGSGTDFTLKISRVEAEDVGVYYCWQGTHFPWTFGQGTKVEIK
B5: the Kd is 3 nM.

B6: hu94B2 HC2 + LC15 (antibody, V domains shown)
VH: EVQLVQSGAEVKKPGASVKVSCKASGYSLTGYTMNWVRQAPGQGLEWIGLISPYNGVTSYNQKFKGRVTLTVDKSTSTAYLELSSLRSEDTAVYYCARQGAYWGQGTLVTVSS
VL: DIVMTQTPLSLPVTPGQPASISCKSSQSLLDSDGKTYLNWYLQKPGQSPQRLIYLVSKLDSGVPDRFSGSGSGTDFTLKISRVEAEDVGVYYCWQGTHFPWTFGQGTKVEIK
Turning to B6, the equilibrium dissociation constant (Kd) came to 99.6 nM.

B7: hu94B2 HC2 + LC11 (antibody, V domains shown)
VH: EVQLVQSGAEVKKPGASVKVSCKASGYSLTGYTMNWVRQAPGQGLEWIGLISPYNGVTSYNQKFKGRVTLTVDKSTSTAYLELSSLRSEDTAVYYCARQGAYWGQGTLVTVSS
VL: DVVMTQTPLSLPVTPGQPASISCKSSQSLLDSDGKTYLNWYLQKPGQSPQRLIYLVSKLDSGVPDRFSGSGSGTDFTLKISRVEAEDVGVYYCWQGTHFPWTFGQGTKVEIK
As to B7, the dissociation constant Kd turned out to be 89.6 nM.

B8: hu94B2 HC5 + LC13 (antibody, V domains shown)
VH: EVQLVQSGAEVKKPGASVKVSCKASGYSLTGYTMNWVRQAPGQGLEWIGLISPYNGVTSYNQKFKGRATLTVDTSTSTAYLELSSLRSEDTAVYYCARQGAYWGQGTLVTVSS
VL: DIVMTQTPLSLPVTPGQPASISCKSSQSLLDSDGKTYLNWLLQKPGQSPQRLIYLVSKLDSGVPDRFSGSGSGTDFTLKISRVEAEDVGVYYCWQGTHFPWTFGQGTKVEIK
On to B8, for which the Kd came out at 4 nM.

B9: hu94B2 HC5 + LC15 (antibody, V domains shown)
VH: EVQLVQSGAEVKKPGASVKVSCKASGYSLTGYTMNWVRQAPGQGLEWIGLISPYNGVTSYNQKFKGRATLTVDTSTSTAYLELSSLRSEDTAVYYCARQGAYWGQGTLVTVSS
VL: DIVMTQTPLSLPVTPGQPASISCKSSQSLLDSDGKTYLNWYLQKPGQSPQRLIYLVSKLDSGVPDRFSGSGSGTDFTLKISRVEAEDVGVYYCWQGTHFPWTFGQGTKVEIK
As to B9, the Kd was found to be 72.6 nM.

B10: hu94B2 HC6 + LC15 (antibody, V domains shown)
VH: EVQLVQSGAEVKKPGASVKVSCKASGYSLTGYTMNWVRQAPGQGLEWIGLISPYNGVTSYNQKFKGRVTITVDKSTSTAYLELSSLRSEDTAVYYCARQGAYWGQGTLVTVSS
VL: DIVMTQTPLSLPVTPGQPASISCKSSQSLLDSDGKTYLNWYLQKPGQSPQRLIYLVSKLDSGVPDRFSGSGSGTDFTLKISRVEAEDVGVYYCWQGTHFPWTFGQGTKVEIK
For B10, the dissociation constant (Kd) was 74.1 nM.

B11: hu94B2 HC1 + LC15 (antibody, V domains shown)
VH: EVQLVQSGAEVKKPGASVKVSCKASGYSLTGYTMNWVRQAPGQGLEWIGLISPYNGVTSYNQKFKGRATLTVDKSTSTAYLELSSLRSEDTAVYYCARQGAYWGQGTLVTVSS
VL: DIVMTQTPLSLPVTPGQPASISCKSSQSLLDSDGKTYLNWYLQKPGQSPQRLIYLVSKLDSGVPDRFSGSGSGTDFTLKISRVEAEDVGVYYCWQGTHFPWTFGQGTKVEIK
B11: the Kd was 104 nM.

B12: hu94B2 HC3 + LC9 (antibody, V domains shown)
VH: EVQLVQSGAEVKKPGASVKVSCKASGYSLTGYTMNWVRQAPGQGLEWIGLISPYNGVTSYNQKFKGRATITVDKSTSTAYLELSSLRSEDTAVYYCARQGAYWGQGTLVTVSS
VL: DVVMTQTPLSLPVTPGQPASISCKSSQSLLDSDGKTYLNWLLQKPGQSPQRLIYLVSKLDSGVPDRFSGSGSGTDFTLKISRVEAEDVGVYYCWQGTHFPWTFGQGTKVEIK
Regarding B12, the Kd stood at 2 nM.

B13: hu94B2 HC4 + LC13 (antibody, V domains shown)
VH: EVQLVQSGAEVKKPGASVKVSCKASGYSLTGYTMNWVRQAPGQGLEWIGLISPYNGVTSYNQKFKGRATLTRDKSTSTAYLELSSLRSEDTAVYYCARQGAYWGQGTLVTVSS
VL: DIVMTQTPLSLPVTPGQPASISCKSSQSLLDSDGKTYLNWLLQKPGQSPQRLIYLVSKLDSGVPDRFSGSGSGTDFTLKISRVEAEDVGVYYCWQGTHFPWTFGQGTKVEIK
For the molecule B13, the Kd was determined as 64.1 nM.

B14: hu94B2 HC2 + LC13 (antibody, V domains shown)
VH: EVQLVQSGAEVKKPGASVKVSCKASGYSLTGYTMNWVRQAPGQGLEWIGLISPYNGVTSYNQKFKGRVTLTVDKSTSTAYLELSSLRSEDTAVYYCARQGAYWGQGTLVTVSS
VL: DIVMTQTPLSLPVTPGQPASISCKSSQSLLDSDGKTYLNWLLQKPGQSPQRLIYLVSKLDSGVPDRFSGSGSGTDFTLKISRVEAEDVGVYYCWQGTHFPWTFGQGTKVEIK
Regarding B14, the Kd turned out to be 7.4 nM.

B15: hu94B2 HC6 + LC9 (antibody, V domains shown)
VH: EVQLVQSGAEVKKPGASVKVSCKASGYSLTGYTMNWVRQAPGQGLEWIGLISPYNGVTSYNQKFKGRVTITVDKSTSTAYLELSSLRSEDTAVYYCARQGAYWGQGTLVTVSS
VL: DVVMTQTPLSLPVTPGQPASISCKSSQSLLDSDGKTYLNWLLQKPGQSPQRLIYLVSKLDSGVPDRFSGSGSGTDFTLKISRVEAEDVGVYYCWQGTHFPWTFGQGTKVEIK
On to B15, for which the equilibrium dissociation constant (Kd) came to 0.9 nM.

B16: hu94B2 HC6 + LC11 (antibody, V domains shown)
VH: EVQLVQSGAEVKKPGASVKVSCKASGYSLTGYTMNWVRQAPGQGLEWIGLISPYNGVTSYNQKFKGRVTITVDKSTSTAYLELSSLRSEDTAVYYCARQGAYWGQGTLVTVSS
VL: DVVMTQTPLSLPVTPGQPASISCKSSQSLLDSDGKTYLNWYLQKPGQSPQRLIYLVSKLDSGVPDRFSGSGSGTDFTLKISRVEAEDVGVYYCWQGTHFPWTFGQGTKVEIK
B16: the Kd came to 70.1 nM.

B17: hu94B2 HC2 + LC9 (antibody, V domains shown)
VH: EVQLVQSGAEVKKPGASVKVSCKASGYSLTGYTMNWVRQAPGQGLEWIGLISPYNGVTSYNQKFKGRVTLTVDKSTSTAYLELSSLRSEDTAVYYCARQGAYWGQGTLVTVSS
VL: DVVMTQTPLSLPVTPGQPASISCKSSQSLLDSDGKTYLNWLLQKPGQSPQRLIYLVSKLDSGVPDRFSGSGSGTDFTLKISRVEAEDVGVYYCWQGTHFPWTFGQGTKVEIK
As for B17, the Kd was determined as 5.7 nM.

B18: hu94B2 HC5 + LC11 (antibody, V domains shown)
VH: EVQLVQSGAEVKKPGASVKVSCKASGYSLTGYTMNWVRQAPGQGLEWIGLISPYNGVTSYNQKFKGRATLTVDTSTSTAYLELSSLRSEDTAVYYCARQGAYWGQGTLVTVSS
VL: DVVMTQTPLSLPVTPGQPASISCKSSQSLLDSDGKTYLNWYLQKPGQSPQRLIYLVSKLDSGVPDRFSGSGSGTDFTLKISRVEAEDVGVYYCWQGTHFPWTFGQGTKVEIK
Regarding B18, the Kd turned out to be 62.6 nM.

B19: hu94B2 HC5 + LC9 (antibody, V domains shown)
VH: EVQLVQSGAEVKKPGASVKVSCKASGYSLTGYTMNWVRQAPGQGLEWIGLISPYNGVTSYNQKFKGRATLTVDTSTSTAYLELSSLRSEDTAVYYCARQGAYWGQGTLVTVSS
VL: DVVMTQTPLSLPVTPGQPASISCKSSQSLLDSDGKTYLNWLLQKPGQSPQRLIYLVSKLDSGVPDRFSGSGSGTDFTLKISRVEAEDVGVYYCWQGTHFPWTFGQGTKVEIK
In the case of B19, the dissociation constant (Kd) worked out at 2.7 nM.
